Our source for the protein stability index values is the supplement of paper PMC10567573.

± gives the standard deviation.

This series is described as follows: protein stability index of a GFP-peptide fusion (GPS, HEK-293T) (PSI 1-6); higher = more stable.
Setting [1] is: treatment: DMSO, c terminus: a fixed tail appended.
The mark [2] stands for this setting: treatment: MLN4924 1 uM, 8 h, c terminus: a fixed tail appended.
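Note: 24-mer peptide tiles fused after GFP, lentivirally expressed, FACS-sorted into six equal bins by GFP/DsRed ratio, decoded by Illumina sequencing, PSI is the read-weighted mean bin number.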

In turn, IQDGTIHLYIYSIHSIPKGTEITI [KMT2E] showed a protein stability index under setting [1] of 2.48 ± 0.43 and a protein stability index under setting [2] of 3.24 ± 0.15.
The corresponding values for IQQELIKQEQSIISEYEKSLQFDE [RPAIN] are 4.64 ± 0.12 and 4.67 ± 0.079.
In turn, IQSKLGIVSLLLGTIHALIFAWNK [STEAP1] had a protein stability index under setting [1] of 2.35 ± 0.31 and a protein stability index under setting [2] of 2.22 ± 0.31.
Turning to IRDQMQQQLNDYEQLLDVKLALDM [LMNB1], the protein stability index by setting is: under setting [1], 3.4 ± 0.25; under setting [2], 3.48 ± 0.36.
For IRLMQRCWQGDPRVRPTFQEITSE [RIPK4], in that order: 2.798 ± 0.002 and 2.78 ± 0.45.
The corresponding values for ISEEIQMSTKESDFLCLLGVSYTF [MIA2] are 2.4 ± 0.45 and 2.76 ± 0.92.
The corresponding values for ISHWHPNITINIVDDHTPWVKGSV [CLPTM1] are 2.37 ± 0.22 and 2.03 ± 0.34.
Take IVIWGVLTQKKPFADEKNILHIMV [RIPK4]: the protein stability index under setting [1] was found to be 3.25 ± 0.88 and the protein stability index under setting [2] stood at 2.92 ± 0.67.
On to IVPNSNGVITTTPTPPGQYFYPRG [JUNB], for which the protein stability index came out at 3.16 ± 0.27 under setting [1] and 3.35 ± 0.2 under setting [2].
The corresponding values for KAALAALCPGDLIQAINGESTELM [PDLIM4] are 3.495 ± 0.025 and 3.77 ± 0.21.
Regarding KAKANGITMYAVGVGKAIEEELQE [MATN2], the protein stability index was determined as 3.83 ± 0.33 under setting [1] and 4.12 ± 0.32 under setting [2].
KAKKNKDKYVGVSSDSVGGFRYSE [CLINT1]: the protein stability index reads like this: under setting [1], 4.53 ± 0.19; under setting [2], 4.58 ± 0.24.
Regarding KARDWFQGHLRRLRSRYSVASFKF [MYORG], the protein stability index under setting [1] amounted to 2.21 ± 0.33 and the protein stability index under setting [2] amounted to 2.15 ± 0.29.
In the case of KAVLENALRNFACLTTGDVIAINY [UFD1], the protein stability index is, setting by setting: under setting [1], 2.94 ± 1.7; under setting [2], 2.3 ± 1.
The corresponding values for KCEQPFFWNIKQMWDTKTLGLRQH [WDFY1] are 2.12 ± 0.17 and 2.38 ± 0.27.
Take KCGDLECEALINRVSAMRDYRGPD [MIA2]: the protein stability index runs as follows: under setting [1], 3.25 ± 0.63; under setting [2], 3.21 ± 0.076.
For KDGVADSTVISSMPCLLMELRRDS [C18orf25], in that order: 3.25 ± 0.15 and 3.42 ± 0.35.
The corresponding values for KEMTQKLEALHLEALCEEDLLLWI [DENND6A] are 2.23 ± 0.28 and 2.26 ± 0.32.
The corresponding values for KETEERTDGERVAEVAPEERENVA [SDE2] are 5.64 ± 0.17 and 5.33 ± 0.42.
Consider KGDRGLPLEGSAKGKVQAELSQPL [RBBP5], for which the protein stability index is, setting by setting: under setting [1], 4.82 ± 0.33; under setting [2], 4.75 ± 0.11.
As to KGKKLYPVVSAVWGHCEIRMRYLN [SPSB1], the protein stability index runs as follows: under setting [1], 2.23 ± 0.35; under setting [2], 2.26 ± 0.23.
With KIFVENLRRQKSLRLEWETQQELR [IQUB], the protein stability index runs as follows: under setting [1], 2.69 ± 0.43; under setting [2], 2.93 ± 0.46.
For KILAEAAKLVPMGFTTATEFHQRR [RAD51], in that order: 2.56 ± 0.23 and 2.7 ± 0.52.
KIPGTGALASAAAAVSGSKAKAE [RTN2]: the protein stability index runs as follows: (treatment: DMSO, c terminus: native) 5.34 ± 0.14; (treatment: MLN4924 1 uM, 8 h, c terminus: native) 5.32 ± 0.14.
On to KIQLSDSEAKSHSSADDASAWSNI [FAN1], for which the protein stability index under setting [1] was determined as 4.757 ± 0.032 and the protein stability index under setting [2] was 4.74 ± 0.11.
KISYIGLMTQSSLETHHYVDCGGN [TMEM106C]: the protein stability index was 2.48 ± 0.24 under setting [1] and 2.45 ± 0.24 under setting [2].
With KKIEFGVVYSCVEGKMYTARKGKG [IMPA1], the protein stability index by setting is: under setting [1], 3.06 ± 0.075; under setting [2], 3.24 ± 0.12.
The corresponding values for KKQAGRPKGSKGKEKDSPFKPKLY [RBBP5] are 3.74 ± 0.26 and 3.91 ± 0.28.
As for KKTSITQQPSKHRTDEELQPPTTT [PLK2], the protein stability index by setting is: under setting [1], 5.27 ± 0.2; under setting [2], 5.26 ± 0.16.
The corresponding values for KKTWKILTIMPYNSAHHCVVEVEN [KLHL14] are 2.27 ± 0.37 and 2.64 ± 0.26.
The corresponding values for KLATCYFFTVEFGLCKQDGQLRVF [TPH1] are 2.59 ± 0.47 and 2.97 ± 0.56.
For KLCTAHMCSTLEHNCAHFCINIPG [MATN2], in that order: 2.22 ± 0.38 and 2.22 ± 0.29.
In the case of KLIDRLEKKDLKLEPPEEEIIEGN [NECAB1], the protein stability index amounted to 4.88 ± 0.32 under setting [1] and 4.8 ± 0.19 under setting [2].
With KLKPHEEPLRSEILSGKFTILNVR [PTPN9], the protein stability index under setting [1] was 3.01 ± 0.14 and the protein stability index under setting [2] was 2.96 ± 0.11.
Regarding KLPLPVTIKSHLKSFSMANGMNAV [RAB40C], the protein stability index under setting [1] was 2.36 ± 0.18 and the protein stability index under setting [2] amounted to 2.46 ± 0.093.
For KLQVSQQEDITKSLLVTELGSSRT [IMPA1], in that order: 4.18 ± 0.28 and 4.28 ± 0.25.
The corresponding values for KNMDQVAPVANSYRGTLKRQPAFD [ETS2] are 3.99 ± 0.41 and 4.15 ± 0.21.
The corresponding values for KPGKGADLSKPPCRKAKEIRKERK [ATE1] are 4.65 ± 0.44 and 5.04 ± 0.3.
With KPGLRRSPIKKVRKSLALDIVDED [MYBL2], the protein stability index runs as follows: under setting [1], 4.84 ± 0.5; under setting [2], 4.92 ± 0.48.
For KPYNCLQCLDKTNESALVKEKELS [MTUS2], in that order: 4.74 ± 0.14 and 4.59 ± 0.23.
Turning to KRTYWPDLDAKIREALVLRSVRVR [PLD5], the protein stability index was found to be 2.4 ± 0.36 under setting [1] and 2.77 ± 0.38 under setting [2].
For KRYAGREEHWVGLKKEPGHPWKWS [CD69], in that order: 2.76 ± 0.22 and 2.83 ± 0.2.
The corresponding values for KSPSSPQAAFTQQGMEGIKVFLHE [TBX5] are 3.58 ± 0.23 and 3.68 ± 0.26.
On to KSSGRFLWIKFFAAGELESMGFSA [NETO1], for which the protein stability index by setting is: under setting [1], 2.59 ± 0.54; under setting [2], 2.64 ± 0.73.
For KSVQGTGLAFIAFTEAMTHFPASP [SLC6A17], in that order: 2.19 ± 0.49 and 2.22 ± 0.12.
The corresponding values for KTRRKTSARDASPTPSTDAEYPAN [NCK2] are 5.31 ± 0.21 and 5.45 ± 0.17.
The corresponding values for KVYPVQEALAVLEPYARLPPHKHV [TRIB3] are 3.02 ± 0.26 and 3.09 ± 0.15.
Take KYDPKTQEWSFLPSITRKRRYVAS [KLHL12]: the protein stability index by setting is: under setting [1], 3.15 ± 0.4; under setting [2], 2.93 ± 0.27.
For KYPSHSFIGEESVAAGEKSILTDN [IMPA1], in that order: 4.66 ± 0.24 and 4.75 ± 0.1.
The corresponding values for LALYVLFLADEEFDVVVCDQVSAC [ALG2] are 2.92 ± 0.44 and 2.59 ± 0.59.
With LAVLDWNQRAMDLYKALGAQDLTE [SAT2], the protein stability index by setting is: under setting [1], 2.41 ± 0.24; under setting [2], 2.42 ± 0.19.
Consider LDSEKRTPLHVAAFLGDAEIIELL [ANKRD44], for which the protein stability index worked out at 2.95 ± 0.12 under setting [1] and 3.03 ± 0.32 under setting [2].
The corresponding values for LEAAEALLTLRNSAQAPPDSISLH [DMRTC1] are 4.42 ± 0.18 and 4.27 ± 0.25.
For LEEELRQLKEEMARHLREYQELLN [PRPH], in that order: 3.27 ± 0.11 and 3.62 ± 0.32.
The corresponding values for LEGEEENELTLNEKNFFPEYNYDW [CHGB] are 4.21 ± 0.37 and 4.46 ± 0.28.
Regarding LEISGIIMSRVNAYQQGVGYQMLG [PHTF1], the protein stability index worked out at 2.81 ± 0.35 under setting [1] and 2.63 ± 0.51 under setting [2].
For LEKPPAPNQAMVVAAAGDACPPQH [TBC1D10A], in that order: 5.21 ± 0.21 and 5.2 ± 0.33.
The sequence LEPPTMRKKRLLDRKVLLKSDSPT [GOLPH3L] had a protein stability index under setting [1] of 4.38 ± 0.21 and a protein stability index under setting [2] of 4.54 ± 0.17.
Turning to LESRQRSLEQANRSLQLRIQELEL [TFE3], the protein stability index came to 3.97 ± 0.27 under setting [1] and 3.98 ± 0.4 under setting [2].
The corresponding values for LETFGHLLSIGPELPKPEVISQLE [ZNF8] are 3.94 ± 0.38 and 3.93 ± 0.19.
Take LEVERQENEQRRLFIQKEEQLQQI [MNAT1]: the protein stability index under setting [1] turned out to be 4.6 ± 0.36 and the protein stability index under setting [2] was determined as 4.64 ± 0.17.
LFAPTLIYRDSYPRNPTVRWGYVA [SOAT1] returned a protein stability index under setting [1] of 2.44 ± 0.55 and a protein stability index under setting [2] of 2.06 ± 0.35.
Regarding LFLRCSLRHKDEEEEDDDDIHITA [DRICH1], the protein stability index reads like this: under setting [1], 3.03 ± 0.35; under setting [2], 3.23 ± 0.28.
For LFQILSERQDMYQCLVEGCTEKFK [ZNF511], in that order: 2.24 ± 0.35 and 2.54 ± 0.6.
On to LGCALLAAHAVVLCALPVHVAVEH [SOAT2], for which the protein stability index reads like this: under setting [1], 3.43 ± 0.35; under setting [2], 3.09 ± 0.51.
For LGIHEDSTNRRRLSELLRYHTSQS [HSP90AB1], the protein stability index under setting [1] is 3.5 ± 0.22 and the protein stability index under setting [2] is 3.71 ± 0.24.
LGKLIPRHQSIFKSNGFFHGISIP [CDKL4]: the protein stability index by setting is: under setting [1], 2.17 ± 0.052; under setting [2], 2.23 ± 0.41.
The corresponding values for LGKMLIGLAGYLSGYDGTFLFQKP [POMT2] are 2.65 ± 0.86 and 2.45 ± 0.79.
Regarding LGLDNRLFGHPGLDMELGPSQGQE [ADAMTSL2], the protein stability index under setting [1] is 4.84 ± 0.21.
As to LGQQQRDMRRDEEGSLCAAHLPKA [FBF1], the protein stability index amounted to 4.97 ± 0.35 under setting [1] and 5.11 ± 0.16 under setting [2].
The corresponding values for LGRGLVGGQEEASQEAGLPAGAGP [SEPHS2] are 5.23 ± 0.47 and 4.75 ± 0.65.
The corresponding values for LGRSHDTVQEAATSRRARASKKTA [MFSD9] are 5.2 ± 0.21 and 5.31 ± 0.16.
